Paper PMC8441438, “Dynamic regulation of mitotic ubiquitin ligase APC/C by coordinated Plx1 kinase and PP2A phosphatase action on a flexible Apc1 loop” (The EMBO Journal, 2021)

B1: MBP-fused Apc1-loop^500 WT fragment [Xenopus tropicalis] / Plx1-PBD WT (polo-box domain of Plx1) [Xenopus laevis] (parent)
chain 1: EPADCYLSEMLQQLTCLNAVKPSERALIRQEEAEDPASIPIFWISKWVDYSDKYGLGYQLCDNSVGVLFNDSTRLIMYNDGDSLQYIERNNTESYLNVRSYPTTLTKKITLLKYFRNYMSEHLLKAGANTTPREGDELARLPFLRTWFRTRSAIILHLSNGTVQINFFQDHTKIILCPLMAAVSYIDEKREFRTYKLSLIQEFGCCKELASRLRYARTMVEKLQSSKSAVAHVKASA
chain 2: GLAAPSLGMSNPMPRPSTPLESISTPAKPLNKHLAPMDEAGMLSPVPELRDSTRLHESTYLDDCTFHQFG
B2: MBP-fused Apc1-loop^500 WT fragment [Xenopus tropicalis] / Plx1 (polo-like kinase homolog in Xenopus laevis), endogenous [Xenopus laevis (endogenous in egg extracts)] (parent)
chain 1: MAQVAGKKLTVAPEAAKPPGIPGSSSAVKEIPEILVDPRTRRRYLRGRFLGKGGFAKCYEITDLESREVFAGKIVPKTMLLKPHQKDKMTMEIAIQRSLDHRHVVGFHGFFEDNDFVYVVLELCRRRSLLELHKRRKAVTEPEARYYLKQTISGCQYLHSNRVIHRDLKLGNLFLNDEMEVKIGDFGLATKVEYDGERKKTLCGTPNYIAPEVLGKKGHSFEVDIWSIGCIMYTLLVGKPPFETSCLKETYMRIKKNEYSIPKHINPVAAALIQKMLRSDPTSRPTIDDLLNDEFFTSGYIPSRLPTTCLTVPPRFSIAPSTIDQSLRKPLTAINKGQDSPLVEKQVAPAKEEEMQQPEFTEPADCYLSEMLQQLTCLNAVKPSERALIRQEEAEDPASIPIFWISKWVDYSDKYGLGYQLCDNSVGVLFNDSTRLIMYNDGDSLQYIERNNTESYLNVRSYPTTLTKKITLLKYFRNYMSEHLLKAGANTTPREGDELARLPFLRTWFRTRSAIILHLSNGTVQINFFQDHTKIILCPLMAAVSYIDEKREFRTYKLSLIQEFGCCKELASRLRYARTMVEKLQSSKSAVAHVKASA
chain 2: B1 chain 2

Variants of: B1
Experiment: MBP pull-down (amylose beads), SDS-PAGE with Coomassie brilliant blue staining, quantified
Conditions: anaphase extracts supplemented with non-degradable cyclin B, 23°C, 1 h, then 10 µg WT Plx1-PBD for 15 min, parent: 1, read off a plot

Q: For chain 2 GLAAPSLGMSNPMPRPSAPLESISAPAKPLNKHLAPMDEAGMLSPVPELRDSTRLHESTYLDDCTFHQFG [chain 2 T18A T25A], which ratio to parent is on record?
A: 0.03

Variants of: B1
Experiment: MBP pull-down (amylose beads), SDS-PAGE with Coomassie brilliant blue staining, quantified as bound Plx1-PBD per Apc1-loop500
Conditions: with MBP-fused Apc1-loop^500 WT fragment [Xenopus tropicalis]; input 10 µg Plx1-PBD, 15 min; Apc1-loop500 pre-incubated in anaphase extracts with non-degradable cyclin B, 23°C, 1 h; parent: 1.1; read off a plot

Q: With chain 1 EPADCYLSEMLQQLTCLNAVKPSERALIRQEEAEDPASIPIFWISKWVDYSDKYGLGYQLCDNSVGVLFNDSTRLIMYNDGDSLQYIERNNTESYLNVRSYPTTLTKKITLLKYFRNYMSEHLLKAGANTTPREGDELARLPFLRTWFRTRSAIILHLSNGTVQINFFQDATMIILCPLMAAVSYIDEKREFRTYKLSLIQEFGCCKELASRLRYARTMVEKLQSSKSAVAHVKASA [chain 1 H171A K173M] as the variant, how does the response read?
A: 0.07 A.U.

Same assay, conditions: with MBP-fused Apc1-loop^500 WT fragment [Xenopus tropicalis]; input 15 µg Plx1-PBD, 15 min; Apc1-loop500 pre-incubated in anaphase extracts with non-degradable cyclin B, 23°C, 1 h; parent: 1.4; read off a plot

Q: With chain 1 EPADCYLSEMLQQLTCLNAVKPSERALIRQEEAEDPASIPIFWISKWVDYSDKYGLGYQLCDNSVGVLFNDSTRLIMYNDGDSLQYIERNNTESYLNVRSYPTTLTKKITLLKYFRNYMSEHLLKAGANTTPREGDELARLPFLRTWFRTRSAIILHLSNGTVQINFFQDATMIILCPLMAAVSYIDEKREFRTYKLSLIQEFGCCKELASRLRYARTMVEKLQSSKSAVAHVKASA [chain 1 H171A K173M] as the variant, how does the response read?
A: 0.09 A.U.

Variants of: B2
Experiment: MBP pull-down (amylose beads) from Xenopus egg anaphase extracts, immunoblot with Plx1 antibody, quantified
Conditions: anaphase extracts supplemented with non-degradable cyclin B, 23°C, 1 h, parent: 1, read off a plot

Q: Which ratio to parent does the source give for chain 2 GLAAPSLGMSNPMPRPSAPLESISTPAKPLNKHLAPMDEAGMLSPVPELRDSTRLHESTYLDDCTFHQFG [chain 2 T18A] here?
A: 0.92 A.U.

Q: With chain 2 GLAAPSLGMSNPMPRPSTPLESISTPAKPLNKHLAPMDEAGMLAPVPELRDSTRLHESTYLDDCTFHQFG [chain 2 S44A] as the variant, how does the ratio to parent read?
A: 0.5 A.U.

Q: How did the ratio to parent turn out when chain 2 GLAAPSLGMSNPMPRPSTPLESISAPAKPLNKHLAPMDEAGMLSPVPELRDSTRLHESTYLDDCTFHQFG [chain 2 T25A] was run?
A: 0.61 A.U.

Q: With chain 2 GLAAPSLGMSNPMPRPSAPLESISAPAKPLNKHLAPMDEAGMLSPVPELRDSTRLHESTYLDDCTFHQFG [chain 2 T18A T25A] as the variant, how does the ratio to parent read?
A: 0.51 A.U.
